From publication PMC11909128, “Identification and inhibition of PIN1-NRF2 protein–protein interactions through computational and biophysical approaches” (Scientific Reports, 2025) come the findings set out here.

Square brackets hold non-standard residues; d marks the D form. Ends that are not written are not given here. fluorescein = fluorescein label at the N-terminus via an aminohexanoic acid (Ahx) linker; pS = N[C@@H](COP(=O)(O)O)C(=O)O; Ahx = NCCCCCC(=O)O

The target in test [1] is T1, GST-PIN1 (UniProt Q13526 1-163, methionine (Met 1) mutated to asparagine (Asn 1)). Briefly: FP; 10 uM Pintide.
T1 sequence (Q13526 other isoform, or with tags, fused parts or gaps methionine (Met 1) mutated to asparagine (Asn 1)): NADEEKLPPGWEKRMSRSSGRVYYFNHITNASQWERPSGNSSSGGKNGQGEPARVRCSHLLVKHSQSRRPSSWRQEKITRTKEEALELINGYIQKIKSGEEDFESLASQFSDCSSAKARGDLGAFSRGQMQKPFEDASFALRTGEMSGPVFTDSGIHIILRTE
In test [2] the target is T1, GST-PIN1. Briefly: FP; 100 uM juglone.
The target in test [3] is T1, GST-PIN1. Kind of test: FP; 100 uM KPT-6566.
Test [4] deals with T2, GST-PIN1 (UniProt Q13526 1-163, methionine (Met 1) mutated to asparagine (Asn 1)).
T2 construct: peptidyl-prolyl cis-trans isomerase PIN1 from the GST-PIN1 plasmid (Addgene #19027); also called GST-tagged PIN1 construct; source: E. coli BL21 (DE3), purified (Glutathione spin columns)
Kind of test: fluorescence polarisation; GST-PIN1 (or GST) titrated to fluorescently labelled peptide (10 nM); room temperature; 5 mM HEPES pH 7.4, 30 mM NaCl, 0.1% v/v Tween20, 1% v/v DMSO; apparent Kd, variable slope dose-response fit. To be noted: both partners purified.
T2 sequence (Q13526 other isoform, or with tags, fused parts or gaps with the stated changes): as the sequence (Q13526 other isoform, or with tags, fused parts or gaps methionine (Met 1) mutated to asparagine (Asn 1)) above

The target in test [5] is T1, GST-PIN1. Kind of test: FP; 100 uM EGCG.
Test [6] concerns the target T2, GST-PIN1. Kind of test: fluorescence polarisation; competition: Pintide titrated to GST-PIN1 (1 uM) and fluorescently labelled NRF2(571-584) pSer577 peptide (10 nM). To be noted: both partners purified. (In general: Polarisation of emitted light reports the rotation of a fluorescent probe.)
In test [7] the target is T2, GST-PIN1. Kind of test: fluorescence polarisation; competition: Pintide titrated to GST-PIN1 (1 uM) and fluorescently labelled NRF2(402-415) pSer408 peptide (10 nM). To be noted: both partners purified.
Test [8] deals with T2, GST-PIN1. Briefly: fluorescence polarisation; competition: Pintide titrated to GST-PIN1 (1 uM) and fluorescently labelled NRF2(209-222) pSer215 peptide (10 nM). Particulars: both partners purified.

B1: fluorescein-labelled NRF2(209-222) pSer215 phospho-peptide (peptide)
peptide: {fluorescein-Ahx}-ETTMVP[pS]PEAKLTE-OH
notes: NRF2 (nuclear factor erythroid 2-related factor 2), residues 209-222, in the Neh7 domain; also called Peptide 1; source: synthetic peptide, bought: China Peptides
Take B1: the Kd with GST-PIN1 [1] is 1.07 µM; with GST-PIN1 [2] it was 1.3 µM; in the test with GST-PIN1 [3] it was 4.04 µM; with GST-PIN1 [4] it was 0.157 ± 0.015 µM.

B2: fluorescein-labelled NRF2(571-584) pSer577 phospho-peptide (peptide)
peptide: {fluorescein-Ahx}-EDGKPY[pS]PSEYDLQ-OH
notes: NRF2 (nuclear factor erythroid 2-related factor 2), residues 571-584, in the Neh3 domain; see recheck for residue 582; source: synthetic peptide, bought: China Peptides
Turning to B2, the Kd with GST-PIN1 [1] was found to be 1.76 µM; in the test with GST-PIN1 [2] it was 1 µM; in the test with GST-PIN1 [3], 25.3 µM; with GST-PIN1 [5], 0.2 µM; in the test with GST-PIN1 [4] it was 0.168 ± 0.025 µM.

B3: fluorescein-labelled NRF2(402-415) pSer408 phospho-peptide (peptide)
peptide: {fluorescein-Ahx}-DMVQPL[pS]PSQGQST-OH
notes: NRF2 (nuclear factor erythroid 2-related factor 2), residues 402-415, linker between the Neh6 and Neh1 domains; source: synthetic peptide, bought: China Peptides
In the case of B3, the Kd turned out to be 1.59 µM with GST-PIN1 [1], 3.9 µM with GST-PIN1 [2], 20.2 µM in the test with GST-PIN1 [3] and 0.221 ± 0.04 µM with GST-PIN1 [4].

B4: Pintide (competitor, not labelled) (peptide)
peptide: WFY[pS]PFLE
notes: also called WW domain-selective Pintide; source: synthetic peptide, bought: China Peptides
Broadly, the IC50 is the concentration that gives 50% inhibition. In the case of B4, the IC50 was 6.7 µM with GST-PIN1 [6], 6.8 µM with GST-PIN1 [7] and 5.7 µM with GST-PIN1 [8].

B5: Pintide, fluorescently labelled (peptide)
peptide: WFY[pS]PFLE
modifications: also: fluorescently labelled, site not given here
notes: source: synthetic peptide, bought: China Peptides
For the molecule B5, the Kd in the test with GST-PIN1 [4] amounted to 0.017 ± 0.003 µM.
